Data from patent US20210147508A1 (ACCELERON PHARMA, published 2021).

T1: TGFβ2 (human, UniProt P61812 303-414)
T1 sequence (looked up): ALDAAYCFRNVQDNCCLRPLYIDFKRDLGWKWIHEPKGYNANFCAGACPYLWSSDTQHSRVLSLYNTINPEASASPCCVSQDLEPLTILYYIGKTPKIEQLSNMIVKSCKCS

T2: TGFβ3 (human, UniProt P10600 301-412)
T2 sequence (looked up): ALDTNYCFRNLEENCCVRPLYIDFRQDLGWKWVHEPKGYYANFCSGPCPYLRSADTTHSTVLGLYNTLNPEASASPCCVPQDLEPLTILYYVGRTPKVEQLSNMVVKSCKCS


Legend:
Test in all cases: cell-based or functional assay
[1] = target: T1, TGFβ2
[2] = target: TGFβ1 (human, UniProt P01137 279-390)
TGFβ1, sequence (P01137 279-390 limits assumed): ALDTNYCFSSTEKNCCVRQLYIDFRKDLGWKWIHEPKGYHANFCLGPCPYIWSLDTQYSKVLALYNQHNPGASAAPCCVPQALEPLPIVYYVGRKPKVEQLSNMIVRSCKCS

[3] = target: T2, TGFβ3

| IC50 (pM), inhibition of TGFβ2 (480 pg/mL), CAGA12-luciferase reporter in A549 cells [1] [pM] | IC50 (pM), inhibition of TGFβ1 (640 pg/mL), CAGA12-luciferase reporter in A549 cells [2] [pM] | IC50 (pM), inhibition of TGFβ3 (270 pg/mL), CAGA12-luciferase reporter in A549 cells [3] [pM] | Binder |
| --- | --- | --- | --- |
| ~200 | < 350 | < 90 | TGFβRIISHORT-Fc:ALK5-Fc heterodimer (Fc fusion) chain 1: TIPPHVQKSVNNDMIVTDNNGAVKFPQLCKFCDVRFSTCDNQKSCMSNCSITSICEKPQEVCVAVWRKNDENITLETVCHDPKLPYHDFILEDAASPKCIMKEKKKPGETFFMCSCSSDECNDNIIFSEEYNTSNPDTGGGTHTCPPCPAPELLGGPSVFLFPPKPKDTLMISRTPEVTCVVVDVSHEDPEVKFNWYVDGVEVHNAKTKPREEQYNSTYRVVSVLTVLHQDWLNGKEYKCKVSNKALPAPIEKTISKAKGQPREPQVYTLPPSRKEMTKNQVSLTCLVKGFYPSDIAVEWESNGQPENNYKTTPPVLKSDGSFFLYSKLTVDKSRWQQGNVFSCSVMHEALHNHYTQKSLSLSPGK chain 2: ALLPGATALQCFCHLCTKDNFTCVTDGLCFVSVTETTDKVIHNSMCIAEIDLIPRDRPFVCAPSSKTGSVTTTYCCNQDHCNKIELPTTVKSSPGLGPVETGGGTHTCPPCPAPELLGGPSVFLFPPKPKDTLMISRTPEVTCVVVDVSHEDPEVKFNWYVDGVEVHNAKTKPREEQYNSTYRVVSVLTVLHQDWLNGKEYKCKVSNKALPAPIEKTISKAKGQPREPQVYTLPPSREEMTKNQVSLTCLVKGFYPSDIAVEWESNGQPENNYDTTPPVLDSDGSFFLYSDLTVDKSRWQQGNVFSCSVMHEALHNHYTQKSLSLSPG |
| 154 | 204 | 35 | TGFβRIILONG-Fc:ALK5-Fc heterodimer (Fc fusion) chain 1: TIPPHVQKSDVEMEAQKDEIICPSCNRTAHPLRHINNDMIVTDNNGAVKFPQLCKFCDVRFSTCDNQKSCMSNCSITSICEKPQEVCVAVWRKNDENITLETVCHDPKLPYHDFILEDAASPKCIMKEKKKPGETFFMCSCSSDECNDNIIFSEEYNTSNPDTGGGTHTCPPCPAPELLGGPSVFLFPPKPKDTLMISRTPEVTCVVVDVSHEDPEVKFNWYVDGVEVHNAKTKPREEQYNSTYRVVSVLTVLHQDWLNGKEYKCKVSNKALPAPIEKTISKAKGQPREPQVYTLPPSRKEMTKNQVSLTCLVKGFYPSDIAVEWESNGQPENNYKTTPPVLKSDGSFFLYSKLTVDKSRWQQGNVFSCSVMHEALHNHYTQKSLSLSPGK chain 2: ALLPGATALQCFCHLCTKDNFTCVTDGLCFVSVTETTDKVIHNSMCIAEIDLIPRDRPFVCAPSSKTGSVTTTYCCNQDHCNKIELPTTVKSSPGLGPVETGGGTHTCPPCPAPELLGGPSVFLFPPKPKDTLMISRTPEVTCVVVDVSHEDPEVKFNWYVDGVEVHNAKTKPREEQYNSTYRVVSVLTVLHQDWLNGKEYKCKVSNKALPAPIEKTISKAKGQPREPQVYTLPPSREEMTKNQVSLTCLVKGFYPSDIAVEWESNGQPENNYDTTPPVLDSDGSFFLYSDLTVDKSRWQQGNVFSCSVMHEALHNHYTQKSLSLSPG |
